{"source": "patent US20070269898A1", "about": "“Amino Acid Sequences Essential to Neuron Specific Gene Expression” (YOKOHAMA CITY UNIVERSITY, priority 2004, published 2007)", "key": {"[1]": {"assay": "Solubility of peptide", "format": "physicochemical", "settings": "before adding KKKK to the C-terminus"}, "[2]": {"target": "T1, mSin3B PAH1 domain (Mus musculus, UniProt Q62141)", "T1 construct": "Gly-Ser-His-Met (vector-derived N-terminal residues; general statement only, not tied to the sample used) (N); made in house", "T1 sequence (Q62141 28-107)": "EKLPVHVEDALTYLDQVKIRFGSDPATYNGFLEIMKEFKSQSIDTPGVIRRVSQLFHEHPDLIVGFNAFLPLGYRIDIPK", "assay": "1H-15N HSQC interaction / titration experiment with 15N-labeled mSin3B PAH1 domain", "format": "binding", "settings": "for Spectrum (1H-15N HSQC of 15N-mSin3B PAH1 after adding the peptide: complex or single peptide): peptide added to aqueous solution of 15N-labeled mSin3B PAH1", "experimental": "Interaction candidate regions of NRSF/REST (a.a. 43-83, 39-55, 38-57, 64-80 and 68-83) were individually added to an aqueous solution of ^15N-labeled mSin3B PAH1 for measuring ^1H—^15N HSQC to thereby determine a region necessary for the interaction. In order to examine binding ratios, NRSF/REST (a.a. 42-56) at varied concentrations was added to ^15N-labeled mSin3B PAH1 domain in phosphate buffer (pH 6.6), followed by observation of signal changes by ^1H—^15N HSQC. […] Further, in order to carry out quantitative determination of concentrations with UV, a residue having an aromatic ring (W) was also added to the peptide. In a similar manner, the interaction between ^15N-labeled mSin3B PAH1 domain and N—CoR (a.a. 1829-1847) was observed by ^1H-^15N HSQC. For all of the NMR measurement, Bruker Advance 700 was used.\n^1H—^15N HSQC spectra were measured when NRSF/REST (a.a. 42-56) was added to 0.1 mM ^15N-labeled mSin3B PAH1 domain at a molar ratio of 1:0, 1:0.5, 1:1 or 1:2. As the concentration of NRSF/REST increased, signals from the single peptide mSin3B disappeared and new signals derived from the mSin3B in complex began to appear. […] No difference was recognized between mSin3B PAH1:NRSF/REST ratios of 1:1 and 1:2. Therefore, it was shown that mSin3B PAH1 domain and NRSF/REST form a complex with 1:1.\n^1H—^15N HSQC spectra were measured when N—CoR was added to 0.1 mM ^15N-labeled mSin3B PAH1 domain at a molar ratio of 1:0, 1:0.2, 1:0.4, 1:0.6, 1:0.8, 1:1, 1:2 or 1:3. The positions of signals shifted in a N—CoR concentration dependent manner."}, "[3]": {"target": "T2, PAH1 domain of mSin3B (a.a. 28-107) (mouse, UniProt O75182 35-114 (human entry))", "T2 construct": "Expressed in E. coli from pET-28a (NdeI-BamHI) and the His-tag was cut off with thrombin; Used 15N-labeled (or 13C/15N-labeled) in NMR; Stated molecular weight 9585; also called mSin3B PAH1 domain; mSin3B PAH1", "T2 sequence": "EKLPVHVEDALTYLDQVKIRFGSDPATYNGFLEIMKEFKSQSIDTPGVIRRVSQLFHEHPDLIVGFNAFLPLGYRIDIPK", "assay": "1H-15N HSQC NMR, peptide added to 15N-labeled mSin3B PAH1 domain", "experimental": "(§1) Interaction candidate regions of NRSF/REST (a.a. 43-83, 39-55, 38-57, 64-80 and 68-83) were individually added to an aqueous solution of ¹⁵N-labeled mSin3B PAH1 for measuring ¹H—¹⁵N HSQC to thereby determine a region necessary for the interaction. In order to examine binding ratios, NRSF/REST (a.a. 42-56) at varied concentrations was added to ¹⁵N-labeled mSin3B PAH1 domain in phosphate buffer (pH 6.6), followed by observation of signal changes by ¹H—¹⁵N HSQC. Since NRSF/REST (a.a. 42-56) is sparingly soluble, basic residues (KKKK) were added to its C-terminus to improve the solubility. Further, in order to carry out quantitative determination of concentrations with UV, a residue having an aromatic ring (W) was also added to the peptide. […] For all of the NMR measurement, Bruker Advance 700 was used."}, "[4]": {"target": "T2, PAH1 domain of mSin3B (a.a. 28-107)", "assay": "1H-15N HSQC titration, 0.1 mM 15N-labeled mSin3B PAH1 at molar ratios 1:0 to 1:3", "experimental": "as §1\n¹H—¹⁵N HSQC spectra were measured when N—CoR was added to 0.1 mM ¹⁵N-labeled mSin3B PAH1 domain at a molar ratio of 1:0, 1:0.2, 1:0.4, 1:0.6, 1:0.8, 1:1, 1:2 or 1:3. The positions of signals shifted in a N—CoR concentration dependent manner. A rapid exchange process on the NMR timescale was shown."}}, "note": "Where no end group is shown, it is not given here.", "data": [{"molecule": "AAPQLIMLANVALTGKKKKW [NRSF/REST 42-56]", "values": [{"measurement": "solubility", "setting": "[1]", "value": "sparingly soluble"}]}, {"molecule": "DYLVGEERQMAELMPVG (listed as Homo sapiens) [NRSF/REST 64-80, synthetic peptide of NRSF/REST residues 64-80]", "values": [{"measurement": "Spectrum (1H-15N HSQC of 15N-mSin3B PAH1 after adding the peptide: complex or single peptide)", "setting": "[2]", "value": "Single"}]}, {"molecule": "KAELAAPQLIMLANVALTGE (listed as Homo sapiens) [NRSF/REST 38-57, synthetic peptide of NRSF/REST residues 38-57]", "values": [{"measurement": "Spectrum (1H-15N HSQC of 15N-mSin3B PAH1 after adding the peptide: complex or single peptide)", "setting": "[2]", "value": "Complex"}]}, {"molecule": "APQLIMLANVALTGEVNGSCCDYLVGEERQMAELMPVGDNN (listed as Homo sapiens) [NRSF/REST 43-83, NRSF/REST residues 43-83, expressed as GST fusion in E. coli and cut with thrombin]", "values": [{"measurement": "Spectrum (1H-15N HSQC of 15N-mSin3B PAH1 after adding the peptide: complex or single peptide)", "setting": "[2]", "value": "Complex"}]}, {"molecule": "AELAAPQLIMLANVALT (listed as Homo sapiens) [NRSF/REST 39-55, synthetic peptide of NRSF/REST residues 39-55]", "values": [{"measurement": "Spectrum (1H-15N HSQC of 15N-mSin3B PAH1 after adding the peptide: complex or single peptide)", "setting": "[2]", "value": "Complex"}]}, {"molecule": "N—CoR (a.a. 1829-1847): synthetic peptide of residues 1829-1847 of transcriptional co-repressor N—CoR (RYNTAADALAALVDAAASA; listed as Homo sapiens)", "values": [{"measurement": "interaction with the PAH1 domain relative to NRSF/REST", "setting": "[2]; 1H-15N HSQC", "value": "interacts with the PAH1 domain, though more weakly than NRSF/REST"}, {"measurement": "exchange process on the NMR timescale", "setting": "[2]; titration into 0.1 mM 15N-labeled mSin3B PAH1 domain, 1H-15N HSQC", "value": "rapid exchange process"}]}, {"molecule": "GEERQMAELMPVGDNN (listed as Homo sapiens) [NRSF/REST 68-83, synthetic peptide of NRSF/REST residues 68-83]", "values": [{"measurement": "Spectrum (1H-15N HSQC of 15N-mSin3B PAH1 after adding the peptide: complex or single peptide)", "setting": "[2]", "value": "Single"}]}, {"molecule": "AAPQLIMLANVALTGKKKKW (Synthetic peptide, molecular weight 2182; also called NRSF/REST42-56)", "note": "[NRSF/REST (a.a. 42-56) to which KKKK and W are added to its C-terminus]", "values": [{"measurement": "binding result", "setting": "[3]", "value": "binds"}]}, {"molecule": "KAELAAPQLIMLANVALTGE (Synthetic peptide, molecular weight 2053; Used for NMR structure analysis of the complex; also called NRSF/REST38-57)", "note": "[NRSF/REST (a.a. 38-57)]", "values": [{"measurement": "binding result", "setting": "[3]", "value": "binds"}]}, {"molecule": "RYNTAADALAALVDAAASA (Synthetic peptide, molecular weight 1835; also called co-repressor N-CoR)", "note": "[N-CoR (a.a. 1829-1847)]", "values": [{"measurement": "binding result", "setting": "[4]", "value": "binds"}]}, {"molecule": "DYLVGEERQMAELMPVG (Synthetic peptide, molecular weight 1937)", "note": "[NRSF/REST (a.a. 64-80)]", "values": [{"measurement": "binding result", "setting": "[3]", "value": "no binding"}]}, {"molecule": "GEERQMAELMPVGDNN (Synthetic peptide, molecular weight 1790)", "note": "[NRSF/REST (a.a. 68-83)]", "values": [{"measurement": "binding result", "setting": "[3]", "value": "no binding"}]}, {"molecule": "AELAAPQLIMLANVALT (Synthetic peptide, molecular weight 1739; also called NRSF/REST39-55)", "note": "[NRSF/REST (a.a. 39-55)]", "values": [{"measurement": "binding result", "setting": "[3]", "value": "binds"}]}, {"molecule": "APQLIMLANVALTGEVNGSCCDYLVGEERQMAELMPVGDNN (Recombinant, made as a GST fusion (pGEX-2T, BamHI-EcoRI) and GST was cut off with thrombin; Stated molecular weight 4511; also called NRSF/REST43-83)", "note": "[NRSF/REST (a.a. 43-83)]", "values": [{"measurement": "binding result", "setting": "[3]", "value": "binds"}]}]}
